Ends that are not written are not given here. * marks the point of attachment. Biotin = O=C1N[C@H]2[C@H](CS[C@H]2CCCCC(=O)*)N1
Experiments:
Test in all cases: G' assay (10 uM PL peptide), results of TABLE 7 and TABLE 12
Assay type in all cases: binding
[1] = biological target: T1, PDZ protein (GST-PDZ fusion) (Homo sapiens, UniProt Q14168); details: PDZ MPP2, PDZ Domain 1
T1 construct: made in house; host or cells: E. coli (DH5alpha, BL21 or JM109)
T1 sequence (Q14168 1-576): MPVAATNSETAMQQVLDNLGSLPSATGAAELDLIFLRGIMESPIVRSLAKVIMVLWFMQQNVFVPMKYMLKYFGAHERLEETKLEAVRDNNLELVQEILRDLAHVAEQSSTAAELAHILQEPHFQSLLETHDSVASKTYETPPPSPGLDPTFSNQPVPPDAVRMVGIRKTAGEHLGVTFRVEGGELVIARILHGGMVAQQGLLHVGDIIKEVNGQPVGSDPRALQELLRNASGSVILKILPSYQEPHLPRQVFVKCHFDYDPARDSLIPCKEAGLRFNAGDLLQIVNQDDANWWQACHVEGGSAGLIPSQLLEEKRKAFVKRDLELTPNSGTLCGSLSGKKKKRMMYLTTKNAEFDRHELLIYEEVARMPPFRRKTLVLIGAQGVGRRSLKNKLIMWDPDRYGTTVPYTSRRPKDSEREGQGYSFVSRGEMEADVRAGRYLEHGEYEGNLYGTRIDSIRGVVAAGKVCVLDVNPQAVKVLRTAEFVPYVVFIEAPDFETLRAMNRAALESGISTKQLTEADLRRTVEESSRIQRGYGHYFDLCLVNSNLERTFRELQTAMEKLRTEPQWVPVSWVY
Outline: (§1)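 Biotinylated PL peptides at 10 uM (vs 20 uM in G^0 assay) bound to GST-PDZ fusions; PDZ protein at 5 ug/ml unless another concentration listed. Bound peptide read as A450 nm, classified 0–5 (0 = A450 0; 5 = A450 >4 repeated).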

[2] = biological target: T2, PDZ protein (GST-PDZ fusion) (Homo sapiens, UniProt Q9BXL6); details: PDZ CARD14, PDZ Domain 1
T2 construct: made in house; host or cells: E. coli (DH5alpha, BL21 or JM109)
T2 sequence (Q9BXL6 1-1004): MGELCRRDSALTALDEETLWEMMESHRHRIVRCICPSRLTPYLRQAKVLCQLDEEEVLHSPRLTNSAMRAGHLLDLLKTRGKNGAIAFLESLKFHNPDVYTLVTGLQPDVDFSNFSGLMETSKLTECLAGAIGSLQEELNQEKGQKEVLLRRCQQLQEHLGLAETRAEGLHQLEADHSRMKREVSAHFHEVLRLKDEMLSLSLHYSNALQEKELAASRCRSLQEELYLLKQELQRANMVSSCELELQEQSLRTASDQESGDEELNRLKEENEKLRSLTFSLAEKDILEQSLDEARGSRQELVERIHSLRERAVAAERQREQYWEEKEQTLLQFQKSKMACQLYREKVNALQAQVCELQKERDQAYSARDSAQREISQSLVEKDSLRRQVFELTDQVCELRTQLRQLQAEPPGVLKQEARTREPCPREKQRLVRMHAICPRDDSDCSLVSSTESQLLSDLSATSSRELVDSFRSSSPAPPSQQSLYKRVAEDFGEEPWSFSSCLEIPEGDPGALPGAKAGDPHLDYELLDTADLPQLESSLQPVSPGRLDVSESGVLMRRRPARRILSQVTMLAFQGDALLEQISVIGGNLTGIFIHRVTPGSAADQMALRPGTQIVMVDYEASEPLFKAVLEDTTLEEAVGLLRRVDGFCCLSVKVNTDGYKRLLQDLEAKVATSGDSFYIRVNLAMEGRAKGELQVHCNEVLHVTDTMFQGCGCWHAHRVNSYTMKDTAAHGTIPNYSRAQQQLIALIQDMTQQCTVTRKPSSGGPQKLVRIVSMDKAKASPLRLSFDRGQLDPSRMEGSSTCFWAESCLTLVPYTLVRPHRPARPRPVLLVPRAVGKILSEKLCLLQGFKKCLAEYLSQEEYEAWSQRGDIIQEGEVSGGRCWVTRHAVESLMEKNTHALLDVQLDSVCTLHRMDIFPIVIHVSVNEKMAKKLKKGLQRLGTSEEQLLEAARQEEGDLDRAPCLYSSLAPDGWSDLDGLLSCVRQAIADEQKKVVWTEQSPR
Outline: as §1

[3] = tested on: PDZ protein (GST-PDZ fusion); details: PDZ HEMBA 1003117, PDZ Domain 1
Outline: as §1

Measured: Classification

5-HT 3A (serotonin receptor 3A) (Biotin-LAVLAYSITLVMLWSIWQYA)
2 (A450 nm 1-2): all assays above

From patent US20050282743A1, “Molecular interactions in cells” (Arbor Vita Corporation, priority 2001, published 2005)
